Data on 2 molecules can be found in patent US20220177547A1 (KYUNGPOOK NATIONAL UNIVERSITY INDUSTRY ACADEMIC COOPERATION …, published 2022).

In assay [1] the target is T1, TRAIL receptor protein Dr5 (UniProt O14763 56-182, limits assumed).
T1 construct: Purified protein amine-coupled (NHS-EDC) to the SPR chip; The construct is not described
As to the kind of experiment: SPR, Dr5 coupled to gold sensor chip. The procedure: (§1) The TRAIL receptor protein Dr5 was coupled to a surface of a gold sensor chip by flowing it on the surface of the gold sensor chip for surface resonance plasma (SPR) activated with NHS-EDC, and blocked with ethanolamine. The binding kinetics were analyzed by flowing TRAIL-ATNC dissolved in TBS from 8.33 nM to 0.52 nM by half, and TRAIL from 400 nM to 25 nM by half on the TRAIL receptor-coupled gold sensor chip, respectively. The right channel, which was not coated with Dr5, was used as a control (or reference).
It was determined that TRAIL-ATNC bound to the TRAIL receptor faster than TRAIL, and formed a stable complex in which dissociation was delayed after binding.
In general terms: In SPR one partner is held on a chip, and binding of the other changes the refractive index at the surface.

Assay [2] has as its target T1, TRAIL receptor protein Dr5. As to the kind of experiment: SPR, Dr5 coupled to gold sensor chip, TRAIL-ATNC flowed 8.33 nM to 0.52 nM. The protocol:
as §1

Assay [3] concerns the target T2, Interleukin 4 receptor (IL4R) protein (UniProt P24394 26-232, limits assumed).
T2 construct: Purified protein amine-coupled (NHS-EDC) to the SPR chip; The construct is not described
T2 sequence (looked up): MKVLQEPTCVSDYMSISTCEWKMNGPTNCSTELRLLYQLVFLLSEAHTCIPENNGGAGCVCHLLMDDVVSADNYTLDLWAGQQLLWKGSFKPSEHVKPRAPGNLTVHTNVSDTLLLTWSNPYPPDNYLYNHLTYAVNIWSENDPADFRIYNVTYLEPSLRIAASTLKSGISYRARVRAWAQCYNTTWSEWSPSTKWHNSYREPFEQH
Nature of the assay: SPR, IL4R coupled to gold sensor chip, TRAIL-ATNC^IL4rP flowed 41.67 nM to 0.65 nM. The procedure:
Interleukin 4 receptor (IL4R) protein was coupled to the surface of a gold sensor chip for surface resonance plasma (SPR) activated with NHS-EDC, and TRAIL-ATNC^IL4rP dissolved in TBS was flowed from 41.67 nM to 0.65 nM in half on the IL4R-coupled gold sensor chip to analyze binding kinetics. The right channel, which was not coated with IL4R, was used as a reference.

One may read the Kd as the constant that tells how readily two partners part at equilibrium. A lower Kd goes with a tighter complex. For orientation: koff means the rate constant with which the complex falls apart. Lower therefore signals slow dissociation. As a reminder, the kon is the second-order rate constant of association. Read a high kon as faster complex formation.

B1: TRAIL-ATNC (Active Trimer Nanocage) (other)
chain: MGSSHHHHHHSSGLVPRGSQHMVRERGPQRVAAHITGTRGRSNTLSSPNSKNEKALGRKINSWESSRSGHSFLSNLHLRNGELVIHEKGFYYIYSQTYFRFQEEIKENTKNDKQMVQYIYKYTSYPDPILLMKSARNSCWSKDAEYGLYSIYQGGIFELKENDRIFVSVTNEHLIDMDHEASFFGAFLVGGSGGGSGEFEALQGQVQHLQAAFSQYKKVELFPVDGGGGAEAAAKEAAAKTSDSEAAINRQINLELYASYVYLSMSYYFDRDDVALKNFAKYFLHQSHEEREHAEKLMKLQNQRGGRIFLQDIKKPDCDDWESGLNAMECALHLEKNVNQSLLELHKLATDKNDPHLCDFIETHYLNEQVKAIKELGDHVTNLRKMGAKL
notes: It was expressed from pET-28a and purified on Ni-NTA; also called TRAIL-attached nanocage
For B1, in assay [1], the “fold higher kon than TRAIL alone” value was approximately 10 fold, the “fold lower KD than TRAIL” value was approximately 100 fold and the “fold lower koff than TRAIL alone” value is approximately 10 fold. For the same molecule, in assay [2], the Kd was determined as 0.411 nM, the koff was 0.000217 s⁻¹ and the on-rate constant (kon) came out at 529000 M⁻¹ s⁻¹.

B2: TRAIL-ATNC^IL4rP (other)
chain: MGSSHHHHHHSSGLVPRGSQHMVRERGPQRVAAHITGTRGRSNTLSSPNSKNEKALGRKINSWESSRSGHSFLSNLHLRNGELVIHEKGFYYIYSQTYFRFQEEIKENTKNDKQMVQYIYKYTSYPDPILLMKSARNSCWSKDAEYGLYSIYQGGIFELKENDRIFVSVTNEHLIDMDHEASFFGAFLVGGSGGGSGEFEALQGQVQHLQAAFSQYKKVELFPVDGGGGAEAAAKEAAAKTSDSEAAINRQINLELYASYVYLSMSYYFDRDDVALKNFAKYFLHQSHEEREHAEKLMKLQNQRGGRIFLQDIKKPDCDDWESGLNAMECALHLEKNVNQSLLELHKLATDKNDPHLCDFIETHYLNEQVKAIKELGDHVTNLRKMGAKLGGGSGGPLGLAGGGGSGCRKRLDRNC
notes: Ferritin nanocage of 24 fusion polypeptides; It was expressed from pET-28a and purified on Ni-NTA; also called TRAIL trimer fusion protein expressed on the cancer-targeting ferritin nanocage
Turning to B2, in assay [3], binding was put at a Kd of 37.7 nM.
